Details in all cases: tags: Cy3-labelled (NHS ester); label: 3' pCp-Cy5; hairpin
Series [1] deals with T1, L7Ae (UniProt O29494 O29494:1-119). Nature of the series: EMSA; 50 mM HEPES-KOH pH 7.8, 100 mM KCl, on ice. On the procedure:
Specific binding of DNA Barcode (bc25mer_00001) and Cy5-RNA probe (PoP_00001_Kt), and further, binding of Cy5-RNA probe (PoP_00001_Kt, PoP_00024_hsa-let-7e) and L7Ae were confirmed by EMSA as follows. First, bc25mer_00001 and PoP_00001_Kt or PoP_00024_hsa-let-7e were mixed and annealed. The composition of a reaction solution (11 μL) was as follows: 500 nM bc25mer_00001, 500 nM Cy5-RNA probe, 1× Annealing Buffer (50 mM HEPES-KOH (ph7.8), 100 mM KCl). The reaction was incubated at 95° C. for 5 minutes and at room temperature for 10 minutes. Subsequently, the DNA/RNA complex annealed and L7Ae were bound by mixing them as follows. The composition of a reaction solution (15 μL) was as follows: 0, 100, 200, 500 or 1000 nM Cy3-L7Ae, 50 nM DNA/RNA complex and 1× Annealing Buffer. Incubation was performed on ice for one hour. To the solution, 3.75 μL of a 5× dye solution (0.25% bromophenol blue, 30% glycerol) was added and mixed. The mixture solution (10 μL) was overlaid on non-denatured 15% polyacrylamide (1/30 bis-acrylamide) gel and electrophoresis was performed at 4° C. and 200 V for 60 minutes. After the electrophoresis, the gel was stained with SYBR Green I and II at room temperature for 15 minutes, and scanned by Typhoon FLA 7000 (GE Healthcare) in SYBR Green mode (600 pmt). Bands were confirmed.
(In general: A gel shift assay detects complexes by their altered migration in electrophoresis.)

Another series deals with U1A (Homo sapiens, UniProt P09012 P09012:2-282). In words: RNA microarray, signal at least 10-fold below U1A2/U1A. On the procedure: To a 1.5-mL tube, 120 ng of Cy5-RNA probe PoP_00001 Kt, 120 ng of Cy5-RNA probe PoP_00001, 00008, 00010, 00011, 00014, 00016, PoP_00018-28 and ultrapure water were mixed and controlled to have a volume of 18 μL. Hereinafter, the same operation as described in Section 8 above was performed. Binding of the RNA probe to a target spot was confirmed based on Cy5 signal.
Chain of U1A (P09012 2-282, one chain of several): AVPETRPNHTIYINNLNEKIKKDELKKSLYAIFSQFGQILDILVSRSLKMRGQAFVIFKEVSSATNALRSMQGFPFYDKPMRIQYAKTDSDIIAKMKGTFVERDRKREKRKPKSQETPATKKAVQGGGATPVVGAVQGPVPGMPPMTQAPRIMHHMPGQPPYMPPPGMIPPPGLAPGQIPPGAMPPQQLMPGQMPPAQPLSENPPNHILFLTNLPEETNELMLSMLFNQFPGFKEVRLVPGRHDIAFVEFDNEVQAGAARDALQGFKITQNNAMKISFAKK
Subsequently, to the gasket slide on the hybridization chamber, 70 μL of 40 nM Cy3-U1A was added and a microarray slide having RNA probes bound thereto was mounted and then a hybridization chamber was assembled. Incubation was performed at room temperature for 30 minutes. The hybridization chamber was made into pieces and the microarray slide was taken out, separated from the gasket in the TBSMT buffer, washed with TBSMT buffer at room temperature for 5 minutes, and further rinsed with TBSM buffer. Thereafter, the dried microarray slide was scanned.

The target of series [2] is T1, L7Ae. In words: RNA microarray, 5 nM L7Ae, 300 mM NaCl, 5 mM MgCl2. On the procedure: To a 1.5 mL tube, 120 ng of Cy5-RNA probe PoP_00001_Kt, 120 ng of Cy5-RNA probe PoP_00018-28 and ultrapure water were mixed and controlled to have a volume of 18 μL. To this, 4.5 μL of 10× Gene Expression Blocking Agent (Agilent) and 22.5 μL of 2×Hi-RPM Hybridization Buffer (Agilent) were added and mixed. The mixture solution was incubated at 100° C. for 5 minutes and subsequently on ice for 5 minutes. On the lower frame of a hybridization chamber (Agilent), a gasket slide (Agilent) was mounted. In a single well of the gasket slide, the mixture solution (45 μL) was added and the well was covered with a DNA Barcode microarray slide and then a hybridization chamber was assembled. The hybridization chamber was set at a rotor (Agilent) of a hybridization oven of 55° C. Incubation was performed for 20 hours at a rotation rate of 20 per minute. The hybridization chamber was taken out from the oven and made into pieces. […]
Subsequently, to the gasket slide on the hybridization chamber, 70 μL of 5 nM Cy3-L7Ae (controlled in concentration with TBSMT buffer (Tris-HCl 20 mM, NaCl 300 mM, 5 mM MgCl₂, 0.1% Tween-20)) was added and then a microarray slide scanned was mounted. […] In addition, Cy3 signal, which was 1.5 times as strong as that at PoP_00001_Kt, was detected at a spot of PoP_00024_hsa-let-7e.

T1 sequence (O29494 whole entry, one chain of several): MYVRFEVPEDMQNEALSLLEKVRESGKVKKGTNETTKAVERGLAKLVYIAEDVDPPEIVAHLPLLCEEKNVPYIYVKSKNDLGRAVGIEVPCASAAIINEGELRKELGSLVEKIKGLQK

B1: PoP_00024_hsa-let-7e loop (ssRNA)
RNA: GACGGGAUCCAAGCGCUCGUAAUAGCGGUGUACGAAGUUUCAGCAUAGUUGAGGAGGACACCCAAGGAGAUCACUAUGCUGAAGCUUCGUGCAC
As for B1, the binding signal was ~10 fold stronger than Kt with L7Ae [1] and 1.5 fold Cy3 signal vs Kt with L7Ae [2]. Further, the binding result with U1A was “no binding”.

These data come from patent US20170022545, “RNA MICROARRAY FOR DETECTING INTERACTION BETWEEN PROTEIN AND RNA CONTAINING A HIGHER-ORDER STRUCTURE” (KYOTO UNIVERSITY, published 2017).
